Experimental data reported in paper PMC7954794, “Protein context shapes the specificity of SH3 domain-mediated interactions in vivo” (Nature Communications, 2021).

B1: SHO1 (protein, UniProt P40073 1-367, looked up)
High osmolarity signaling …: MSISSKIRPTPRKPSRMATDHSFKMKKFYADPFAISSISLAIVSWVIAIGGSISSASTNESFPRFTWWGIVYQFLIICSLMLFYCFDLVDHYRIFITTSIAVAFVYNTNSATNLVYADGPKKAAASAGVILLSIINLIWILYYGGDNASPTNRWIDSFSIKGIRPSPLENSLHRARRRGNRNTTPYQNNVYNDAIRDSGYATQFDGYPQQQPSHTNYVSSTALAGFENTQPNTSEAVNLHLNTLQQRINSASNAKETNDNSNNQTNTNIGNTFDTDFSNGNTETTMGDTLGLYSDIGDDNFIYKAKALYPYDADDDDAYEISFEQNEILQVSDIEGRWWKARRANGETGIIPSNYVQLIDGPEEMHR
B2: SDC25 (protein, UniProt P0CF34 1-1048, looked up)
Putative truncated guanine …: MPITSSPDLFYLNDCDVVYWYDLTRLVCHYVNLTERDLLANEREKFLTSLDLLTAQITYVYMLFRNLRLVEDSFKKTLKKLIYTLSRFSINANIWFHSTLFEEREAIASQKDPERRSPLLQSILGTFQKFHFLLRLLHFLSNPNELTILPQLTPRFFKDSFNTISWNNPFLRKRLNQHMSHDLPRQMIKAVAGASGIVAENIDEIPASKQGTSCSSETSHHSPSAPFQRRRRGTIFSNVSGSSDESDTIWSKRKKPYPLNEETLSLVRARKKQLDGKLKQMIKSANEYLSNTANFSKMLNFEMNFKTYEEVSGTIPIIDILENLDLTIFLNLRELGDENRVFDEDVAIDDEDEEFLKHSLSSLSYILSDYFNMKQYFHDVVVKFIIVAQHLTLEDPFVFSPMQNDLPTGYYEPMKPSSLNLDNAKDKKNGSQNTDIQEEEDEYEPDPDSLILFHNLINQDSDFNDLKFFNLAHVFKKSCDDYFDVLKLAIEFVNQLILERENLLNYAARMMKNNITELLLRGEEGYGSYDGGETAEKSDTNAVYADSDTKDNDEWRDSQVKLPRYLQREYDSELIWGSNNRIKGGSKHALISYLTDNEKKDLFFDITFLITFRSIFTTTEFLSYLISQYNLDPPEDLCFEEYNEWVTKKLIPVKCRVVEIMTTFFKQYWFLGYDEPDLATLNLDYFAQVAIKENITGSVELLKEVNQKFKHGNIQEATAPMKTLDQQICQDHYSGTLYSTTESILAVDPVLFATQLTILEHEIYCEITIFDCLQKIWKNKYTKSYGASPGLNEFISFANKLTNFISYSVVKEADKSKRAKLLSHFIFIAEYCRKFNNFSSMTAIISALYSSPIYRLEKTWQAVIPQTRDLLQSLNKLMDPKKNFINYRNELKSLHSAPCVPFFGVYLSDLTFTDSGNPDYLVLEHGLKGVHDEKKYINFNKRSRLVDILQEIIYFKKTHYDFTKDRTVIECISNSLENIPHIEKQYQLSLIIEPKPRKKVVPNSNSNNKSQEKSRDDQTDEGKTSTKKDRFPKFQLHKTKKKAPKVSK

Tested on: Abp1 PPIs
Assay: DHFR-PCA of Abp1 SH3-swapped baits (Fig. 2B-D, S2C, S2F);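 on Protein-protein interaction distance between Abp1 SH3-swapped baits, to ABP1: Euclidean distance between DHFR-PCA score profiles of the baits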;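 on Protein-protein interaction distance between Abp1 SH3-swapped baits, to BEM1-2: Euclidean distance between DHFR-PCA score profiles of the baits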;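 on Protein-protein interaction distance between Abp1 SH3-swapped baits, to BOI1: Euclidean distance between DHFR-PCA score profiles of the baits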;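 on Protein-protein interaction distance between Abp1 SH3-swapped baits, to BZZ1-1: Euclidean distance between DHFR-PCA score profiles of the baits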
Assay type: cell-based, Saccharomyces cerevisiae
Conditions: for Protein-protein interaction distance between Abp1 SH3-swapped baits, to ABP1: Abp1 bait with swapped SH3, distance to bait with ABP1 SH3; for Protein-protein interaction distance between Abp1 SH3-swapped baits, to ABP1 / Protein-protein interaction distance between Abp1 SH3-swapped baits, to BBC1 / Protein-protein interaction distance between Abp1 SH3-swapped baits, to BEM1-1 / Protein-protein interaction distance between Abp1 SH3-swapped baits, to BEM1-2 / Protein-protein interaction distance between Abp1 SH3-swapped baits, to BOI1 / Protein-protein interaction distance between Abp1 SH3-swapped baits, to BOI2 / Protein-protein interaction distance between Abp1 SH3-swapped baits, to BUD14 / Protein-protein interaction distance between Abp1 SH3-swapped baits, to BZZ1-1 / Protein-protein interaction distance between Abp1 SH3-swapped baits, to BZZ1-2 / Protein-protein interaction distance between Abp1 SH3-swapped baits, to CDC25 / Protein-protein interaction distance between Abp1 SH3-swapped baits, to CTTN / Protein-protein interaction distance between Abp1 SH3-swapped baits, to CYK3 / Protein-protein interaction distance between Abp1 SH3-swapped baits, to DBNL / Protein-protein interaction distance between Abp1 SH3-swapped baits, to FUS1 / Protein-protein interaction distance between Abp1 SH3-swapped baits, to HCLS1 / Protein-protein interaction distance between Abp1 SH3-swapped baits, to HOF1 / Protein-protein interaction distance between Abp1 SH3-swapped baits, to HSE1 / Protein-protein interaction distance between Abp1 SH3-swapped baits, to LSB1 / Protein-protein interaction distance between Abp1 SH3-swapped baits, to LSB3 / Protein-protein interaction distance between Abp1 SH3-swapped baits, to MYO3 / Protein-protein interaction distance between Abp1 SH3-swapped baits, to MYO5 / Protein-protein interaction distance between Abp1 SH3-swapped baits, to NBP2 / Protein-protein interaction distance between Abp1 SH3-swapped baits, to PEX13 / Protein-protein interaction distance between Abp1 SH3-swapped baits, to PIN3 / Protein-protein interaction distance between Abp1 SH3-swapped baits, to RVS167 / Protein-protein interaction distance between Abp1 SH3-swapped baits, to SDC25 / Protein-protein interaction distance between Abp1 SH3-swapped baits, to SHO1 / Protein-protein interaction distance between Abp1 SH3-swapped baits, to SLA1-1 / Protein-protein interaction distance between Abp1 SH3-swapped baits, to SLA1-2 / Protein-protein interaction distance between Abp1 SH3-swapped baits, to SLA1-3 / Protein-protein interaction distance between Abp1 SH3-swapped baits, to YSC84: sheet Fig2C; for Protein-protein interaction distance between Abp1 SH3-swapped baits, to BBC1: distance to Abp1 bait with BBC1 SH3; for Protein-protein interaction distance between Abp1 SH3-swapped baits, to BEM1-1: distance to Abp1 bait with BEM1-1 SH3; for Protein-protein interaction distance between Abp1 SH3-swapped baits, to BEM1-2: distance to Abp1 bait with BEM1-2 SH3; for Protein-protein interaction distance between Abp1 SH3-swapped baits, to BOI1: distance to Abp1 bait with BOI1 SH3; for Protein-protein interaction distance between Abp1 SH3-swapped baits, to BOI2: distance to Abp1 bait with BOI2 SH3; for Protein-protein interaction distance between Abp1 SH3-swapped baits, to BUD14: distance to Abp1 bait with BUD14 SH3; for Protein-protein interaction distance between Abp1 SH3-swapped baits, to BZZ1-1: distance to Abp1 bait with BZZ1-1 SH3; for Protein-protein interaction distance between Abp1 SH3-swapped baits, to BZZ1-2: distance to Abp1 bait with BZZ1-2 SH3; for Protein-protein interaction distance between Abp1 SH3-swapped baits, to CDC25: distance to Abp1 bait with CDC25 SH3; for Protein-protein interaction distance between Abp1 SH3-swapped baits, to CTTN: distance to Abp1 bait with CTTN SH3; for Protein-protein interaction distance between Abp1 SH3-swapped baits, to CYK3: distance to Abp1 bait with CYK3 SH3; for Protein-protein interaction distance between Abp1 SH3-swapped baits, to DBNL: distance to Abp1 bait with DBNL SH3; for Protein-protein interaction distance between Abp1 SH3-swapped baits, to FUS1: distance to Abp1 bait with FUS1 SH3; for Protein-protein interaction distance between Abp1 SH3-swapped baits, to HCLS1: distance to Abp1 bait with HCLS1 SH3; for Protein-protein interaction distance between Abp1 SH3-swapped baits, to HOF1: distance to Abp1 bait with HOF1 SH3; for Protein-protein interaction distance between Abp1 SH3-swapped baits, to HSE1: distance to Abp1 bait with HSE1 SH3; for Protein-protein interaction distance between Abp1 SH3-swapped baits, to LSB1: distance to Abp1 bait with LSB1 SH3; for Protein-protein interaction distance between Abp1 SH3-swapped baits, to LSB3: distance to Abp1 bait with LSB3 SH3; for Protein-protein interaction distance between Abp1 SH3-swapped baits, to MYO3: distance to Abp1 bait with MYO3 SH3; for Protein-protein interaction distance between Abp1 SH3-swapped baits, to MYO5: distance to Abp1 bait with MYO5 SH3; for Protein-protein interaction distance between Abp1 SH3-swapped baits, to NBP2: distance to Abp1 bait with NBP2 SH3; for Protein-protein interaction distance between Abp1 SH3-swapped baits, to PEX13: distance to Abp1 bait with PEX13 SH3; for Protein-protein interaction distance between Abp1 SH3-swapped baits, to PIN3: distance to Abp1 bait with PIN3 SH3; for Protein-protein interaction distance between Abp1 SH3-swapped baits, to RVS167: distance to Abp1 bait with RVS167 SH3; for Protein-protein interaction distance between Abp1 SH3-swapped baits, to SDC25: distance to Abp1 bait with SDC25 SH3; for Protein-protein interaction distance between Abp1 SH3-swapped baits, to SHO1: distance to Abp1 bait with SHO1 SH3; for Protein-protein interaction distance between Abp1 SH3-swapped baits, to SLA1-1: distance to Abp1 bait with SLA1-1 SH3; for Protein-protein interaction distance between Abp1 SH3-swapped baits, to SLA1-2: distance to Abp1 bait with SLA1-2 SH3; for Protein-protein interaction distance between Abp1 SH3-swapped baits, to SLA1-3: distance to Abp1 bait with SLA1-3 SH3; for Protein-protein interaction distance between Abp1 SH3-swapped baits, to YSC84: distance to Abp1 bait with YSC84 SH3
Outline: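 Interactions were scored by DHFR protein-fragment complementation. DHFR F[1,2]-tagged Abp1 strains, whose SH3 was swapped for yeast or human ortholog domains, were crossed on YPD at 30 °C for 48 h with a 1536-format array of 575 prey-DHFR F[3] strains and 40 negatives, giving four replicates per pair. PCA selection lasted 4 days after double diploid selection.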

[1] = number of PPIs, difference, Abp1 SH3-swapped with the listed SH3, Fig2D,S2F

Molecule | Protein-protein interaction distance between Abp1 SH3-swapped baits, to ABP1 | Protein-protein interaction distance between Abp1 SH3-swapped baits, to BBC1 | Protein-protein interaction distance between Abp1 SH3-swapped baits, to BEM1-1 | Protein-protein interaction distance between Abp1 SH3-swapped baits, to BEM1-2 | Protein-protein interaction distance between Abp1 SH3-swapped baits, to BOI1 | Protein-protein interaction distance between Abp1 SH3-swapped baits, to BOI2 | Protein-protein interaction distance between Abp1 SH3-swapped baits, to BUD14 | Protein-protein interaction distance between Abp1 SH3-swapped baits, to BZZ1-1 | Protein-protein interaction distance between Abp1 SH3-swapped baits, to BZZ1-2 | Protein-protein interaction distance between Abp1 SH3-swapped baits, to CDC25 | Protein-protein interaction distance between Abp1 SH3-swapped baits, to CTTN | Protein-protein interaction distance between Abp1 SH3-swapped baits, to CYK3 | Protein-protein interaction distance between Abp1 SH3-swapped baits, to DBNL | Protein-protein interaction distance between Abp1 SH3-swapped baits, to FUS1 | Protein-protein interaction distance between Abp1 SH3-swapped baits, to HCLS1 | Protein-protein interaction distance between Abp1 SH3-swapped baits, to HOF1 | Protein-protein interaction distance between Abp1 SH3-swapped baits, to HSE1 | Protein-protein interaction distance between Abp1 SH3-swapped baits, to LSB1 | Protein-protein interaction distance between Abp1 SH3-swapped baits, to LSB3 | Protein-protein interaction distance between Abp1 SH3-swapped baits, to MYO3 | also measured
B1 | 8.989 | 7.412 | 10.91 | 30.43 | 8.152 | 11.77 | 14.66 | 4.878 | 7.862 | 24.02 | 9.013 | 24.75 | 4.441 | 16.07 | 8.302 | 29.05 | 5.64 | 11.57 | 11.76 | 10.66 | Protein-protein interaction distance between Abp1 SH3-swapped baits, to MYO5: 10.26; Protein-protein interaction distance between Abp1 SH3-swapped baits, to NBP2: 13.02; Protein-protein interaction distance between Abp1 SH3-swapped baits, to PEX13: 8.672; Protein-protein interaction distance between Abp1 SH3-swapped baits, to PIN3: 9.004; Protein-protein interaction distance between Abp1 SH3-swapped baits, to RVS167: 6.815; Protein-protein interaction distance between Abp1 SH3-swapped baits, to SDC25: 31.28; Protein-protein interaction distance between Abp1 SH3-swapped baits, to SHO1: 0.00; Protein-protein interaction distance between Abp1 SH3-swapped baits, to SLA1-1: 26.8; Protein-protein interaction distance between Abp1 SH3-swapped baits, to SLA1-2: 16.55; Protein-protein interaction distance between Abp1 SH3-swapped baits, to SLA1-3: 11.51; Protein-protein interaction distance between Abp1 SH3-swapped baits, to YSC84: 12.33; PPIs gained by Abp1 - SH3-dependent PPIs gained by Abp1 [1]: 3; SH3-dependent PPIs - SH3-dependent PPIs gained by Abp1 [1]: 1; SH3-dependent PPIs gained by Abp1 (number of PPIs, Abp1 SH3-swapped with the listed SH3, DHFR-PCA, Fig2D,S2F): 1
B2 | 33.14 | 31.85 | 25.75 | 6.672 | 29.16 | 28.39 | 24.65 | 32.5 | 29.97 | 14.8 | 27.81 | 15.21 | 31.69 | 24.28 | 34.87 | 7.905 | 31.59 | 37.12 | 36.63 | 35.91 | Protein-protein interaction distance between Abp1 SH3-swapped baits, to MYO5: 35.29; Protein-protein interaction distance between Abp1 SH3-swapped baits, to NBP2: 24.44; Protein-protein interaction distance between Abp1 SH3-swapped baits, to PEX13: 35.86; Protein-protein interaction distance between Abp1 SH3-swapped baits, to PIN3: 34.35; Protein-protein interaction distance between Abp1 SH3-swapped baits, to RVS167: 34.37; Protein-protein interaction distance between Abp1 SH3-swapped baits, to SDC25: 0.00; Protein-protein interaction distance between Abp1 SH3-swapped baits, to SHO1: 31.28; Protein-protein interaction distance between Abp1 SH3-swapped baits, to SLA1-1: 14.07; Protein-protein interaction distance between Abp1 SH3-swapped baits, to SLA1-2: 23.99; Protein-protein interaction distance between Abp1 SH3-swapped baits, to SLA1-3: 37.49; Protein-protein interaction distance between Abp1 SH3-swapped baits, to YSC84: 36.86
